Source: patent US20230151111A1 (AKESO BIOPHARMA, published 2023)

Columns and labels:
[1] = target: T1, PD-1-mFc (human, UniProt Q15116 25-170, limits assumed); experiment: ELISA, PD-1-mFc coated
T1 construct: also called human PD-1-mFc
Description: Then the microplate coated with antigens was washed once with PBST, and then blocked with a PBS solution containing 1% BSA as blocking solution at 37° C. for 2 h. After blocking, the microplate was washed 3 times with PBST. The microplate containing the test antibodies was incubated at 37° C. for 30 min, and then washed 3 times with PBST. […] The microplate was put into a microplate reader immediately, and the OD value of each well in the microplate was read at 450 nm. The data were analyzed and processed by SoftMax Pro 6.2.1.

[2] = target: T1, PD-1-mFc; experiment: BLI (Fortebio), PD1-mFc on AMC sensor, antibody 0.62-50 nM, 30 C
Description: The sample dilution buffer was PBS (0.02% Tween-20, 0.1% BSA, pH 7.4). […] The data were analyzed by 1:1 model fitting to obtain affinity constants.

[3] = target: human PD-1-mFc-biotin (human, UniProt Q15116 25-170, limits assumed, biotin label, site not stated); experiment: competitive ELISA, blocking of PD-1-mFc-biotin binding to coated PD-L1-mFc
Sequence of human PD-1-mFc-biotin (Q15116 other isoform, or with tags, fused parts or gaps limits assumed): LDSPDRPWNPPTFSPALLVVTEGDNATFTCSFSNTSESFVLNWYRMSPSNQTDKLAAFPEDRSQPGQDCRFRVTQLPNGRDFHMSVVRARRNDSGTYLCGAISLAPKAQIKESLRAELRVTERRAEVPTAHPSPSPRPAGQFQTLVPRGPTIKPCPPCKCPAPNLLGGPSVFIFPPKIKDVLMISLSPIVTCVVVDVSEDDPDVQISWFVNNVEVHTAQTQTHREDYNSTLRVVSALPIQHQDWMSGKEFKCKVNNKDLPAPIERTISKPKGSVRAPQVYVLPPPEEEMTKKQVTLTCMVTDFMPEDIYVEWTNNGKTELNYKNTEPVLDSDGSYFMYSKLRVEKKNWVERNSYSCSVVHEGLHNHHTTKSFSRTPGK
Description: After incubation, the microplate was blocked with a PBS solution containing 1% BSA at 37° C. for 2 h. […] The antibody was serially diluted to 7 concentrations in a gradient ratio of 1:3 on a dilution plate with 10 μg/mL as the starting concentration, and a blank control was set. […] Then the mixture after reaction was added to the coated microplate, and the microplate was incubated for at 37° C. for 30 min. After incubation, the plate was washed three times with PBST and dried. SA-HRP (KPL, 14-30-00) working solution was added, and the plate was incubated at 37° C. for 30 min. After incubation, the plate was washed four times and patted dry. Then TMB (Neogen, 308177) was added in the dark for chromogenesis for 5 min, and a stop solution was added to terminate chromogenic reaction. Then the microplate was put into a microplate reader immediately, and the OD value of each well in the microplate was read at 450 nm. The data were analyzed and processed by SoftMax Pro 6.2.1.

T1 sequence (Q15116 other isoform, or with tags, fused parts or gaps limits assumed): as above

EC50 [1]: 0.031 nM
Kd [2]: 0.0445 nM
EC50 [3]: 2.23 nM
B1: 14C12H1L1(hG1TM) (antibody, human IgG1, kappa)
heavy: not shown
light: DIQMTQSPSSMSASVGDRVTFTCRASQDINTYLSWFQQKPGKSPKTLIYRANRLVSGVPSRFSGSGSGQDYTLTISSLQPEDMATYYCLQYDEFPLTFGAGTKLELKRTVAAPSVFIFPPSDEQLKSGTASVVCLLNNFYPREAKVQWKVDNALQSGNSQESVTEQDSKDSTYSLSSTLTLSKADYEKHKVYACEVTHQGLSSPVTKSFNRGEC
notes: Humanized anti-PD-1 IgG1 with L234A/L235A/G237A
